Target: purified histone H4 (New England Biolabs), P62805

B1: purified ACK1 (protein)
chain: GEGPLQSLTCLIGEKDLRLLEKLGDGSFGVVRRGEWDAPSGKTVSVAVKCLKPDVLSQPEAMDDFIREVNAMHSLDHRNLIRLYGVVLTPPMKMVTELAPLGSLLDRLRKHQGHFLLGTLSRYAVQVAEGMGYLESKRFIHRDLAARNLLLATRDLVKIGDFGLMRALPQNDDHYVMQEHRKVPFAWCAPESLKTRTFSHASDTWMFGVTLWEMFTYGQEPWIGLNGSQILHKIDKEGERLPRPEDCPQDIYNVMVQCWAHKPEDRPTFVALRDFLLEAQPTDMRALQDFEEPDKLHIQMNDVITVIEGRAENYWWRGQNTRTLCVGPFPRNVVTSVAGLSAQDISQPLQNSFIHTGHGDSDPRHCW
With B1 the “in vitro kinase assay with all the four core histones, immunoblotting with pY88-H4 antibodies” value was “Presence of band exclusively when ACK1 was incubated with H4” and the “in vitro kinase assay, immunoblotting with pY88-H4 and pTyr antibodies” value was “indeed H4 is directly Tyr-phosphorylated by ACK1”.
